Data taken from paper PMC11983205.

Target: CD33 (UniProt P20138 18-259)
Experiment: LOCK displacement, CHA/Cas12a fluorescence

CD33, sequence (P20138 18-259): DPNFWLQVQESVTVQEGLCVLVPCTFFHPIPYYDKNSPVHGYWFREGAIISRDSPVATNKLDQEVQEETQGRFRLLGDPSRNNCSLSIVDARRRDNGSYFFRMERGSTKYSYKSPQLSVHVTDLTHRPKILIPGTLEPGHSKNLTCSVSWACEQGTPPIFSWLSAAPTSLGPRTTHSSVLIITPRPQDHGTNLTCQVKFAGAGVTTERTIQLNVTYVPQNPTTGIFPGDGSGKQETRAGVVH

B1: CD33 YES gate DNA1/LOCK (mixed)
DNA 1: TAGCTTATCAGACTGATGTTGATACCAGTGCGATGCTCAGCACGCTTATAGGGGCTGGACAAAATTCTACCCAGCCTTTTCTGACGCATTCGGTTGAC
DNA 2: CACTGGTATCAACATCAGTC
B1: binds.
